# According to patent US8835467B2, “SIR2 regulation” (Albert Einstein College of Medicine of Yeshiva University, priority 2003, dated 2014):
# Tested on: NC(=O)c1cccnc1
# Assay: Sir2 catalyzed base exchange with H4 N-terminal peptide
# Format: biochemical, yeast
# Details: other: 0 mM isonicotinamide
substance,measurement,value
Yeast Sir2 (Saccharomyces cerevisiae S288C),Km,120 µM
